From patent publication US5378822, “Nucleic acids encoding murine and human Ah receptors” (Wisconsin Alumni Research)

Experiments:
ARNT alone = ARNT alone (Homo sapiens, UniProt P27540 P27540:1-789); assay: EMSA; no binding without AhR; conditions: label: 32P end-label; 5' TCGA overhangs
Experimental: (§1) A complementary pair of synthetic oligonucleotides, 5'-[…]-3' Sequence ID. No. 16 and 5'-TCGAGCTGGGC-CCATTGCGTGATCTAC-3' Sequence ID. No. 17 (containing DRE3) were annealed and end-labeled with gamma ^32P-labeled deoxyadenosine triphosphate as described. Sambrook, J., Fritsch, E. F., Maniatis, T., *Molecular Cloning: A Laboratory Manual/second edition* (Cold Spring Harbor Laboratory Press, 1989). Cytosolic extracts (35 μg of protein) obtained from either human SCC cells or murine Hepa 1c1c7 cells (From James P. Whitlock Jr.) were incubated in the presence of DMSO (−) or 20 nM TCDD (+) for 2 hours at either room temperature (human) or 30° (murine). Nonspecific competitor, poly dIdC, was added and incubated 15 minutes at room temperature. The radiolabeled probe was then added and incubated 15 minutes at room temperature followed by nondenaturing gel electrophoresis. In vitro translated human AhR and ARNT proteins were incubated with either DMSO (−) or 20 nM TCDD (+) for 2 hours at room temperature followed by gel shift assays as described above. In vitro translated mouse AhR and humanARNT proteins were incubated with either DMSO (−) or 20 nM TCDD (+) for 2 hours at 30° followed by electrophoretic mobility shift assays.

AhR (human) alone = target: T1, AhR (human) alone (Homo sapiens, UniProt P35869 SEQ:1-848); assay: EMSA; no binding without ARNT; conditions: label: 32P end-label; 5' TCGA overhangs
T1 chain: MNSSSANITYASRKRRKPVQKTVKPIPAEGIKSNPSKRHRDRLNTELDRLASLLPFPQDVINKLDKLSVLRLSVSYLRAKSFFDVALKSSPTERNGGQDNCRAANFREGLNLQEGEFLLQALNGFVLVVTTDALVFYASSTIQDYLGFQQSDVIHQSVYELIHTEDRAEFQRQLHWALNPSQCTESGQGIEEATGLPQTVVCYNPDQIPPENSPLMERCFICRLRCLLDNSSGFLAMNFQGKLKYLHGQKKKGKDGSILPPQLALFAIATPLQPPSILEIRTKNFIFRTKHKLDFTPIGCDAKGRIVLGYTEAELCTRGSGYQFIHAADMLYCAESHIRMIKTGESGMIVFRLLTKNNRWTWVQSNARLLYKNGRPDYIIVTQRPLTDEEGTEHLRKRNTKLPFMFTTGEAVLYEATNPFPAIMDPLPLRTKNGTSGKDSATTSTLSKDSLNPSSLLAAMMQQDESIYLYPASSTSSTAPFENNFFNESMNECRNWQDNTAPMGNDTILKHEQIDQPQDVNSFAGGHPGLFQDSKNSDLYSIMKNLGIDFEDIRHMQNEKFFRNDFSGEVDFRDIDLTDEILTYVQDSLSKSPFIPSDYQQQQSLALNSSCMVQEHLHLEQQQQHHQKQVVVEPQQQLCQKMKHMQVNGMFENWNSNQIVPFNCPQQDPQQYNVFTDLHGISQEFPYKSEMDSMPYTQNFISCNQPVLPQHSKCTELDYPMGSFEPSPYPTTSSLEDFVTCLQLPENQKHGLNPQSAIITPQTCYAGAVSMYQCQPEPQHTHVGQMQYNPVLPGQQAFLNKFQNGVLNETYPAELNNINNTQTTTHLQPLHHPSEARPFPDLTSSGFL
Experimental: as §1

[1] = target: AhR-ARNT heterodimer (mouse AhR + human ARNT) (Mus musculus / Homo sapiens, UniProt P30561;P27540 P30561:1-805,P27540:1-789); assay: EMSA; 20 nM TCDD, 2 h 30 C; poly dIdC; ligand dependent; conditions: tags: reticulocyte lysate TNT; label: 32P end-label; 5' TCGA overhangs
Experimental: as §1

[2] = target: AhR-ARNT heterodimer (human AhR + human ARNT) (Homo sapiens, UniProt P35869;P27540 P35869:1-848,P27540:1-789); assay: EMSA; 20 nM TCDD, 2 h room temperature; poly dIdC; ligand dependent; conditions: tags: reticulocyte lysate TNT; label: 32P end-label; 5' TCGA overhangs
Experimental: as §1

Sequence of AhR-ARNT heterodimer (human AhR + human ARNT) (P27540 whole entry, one chain of several): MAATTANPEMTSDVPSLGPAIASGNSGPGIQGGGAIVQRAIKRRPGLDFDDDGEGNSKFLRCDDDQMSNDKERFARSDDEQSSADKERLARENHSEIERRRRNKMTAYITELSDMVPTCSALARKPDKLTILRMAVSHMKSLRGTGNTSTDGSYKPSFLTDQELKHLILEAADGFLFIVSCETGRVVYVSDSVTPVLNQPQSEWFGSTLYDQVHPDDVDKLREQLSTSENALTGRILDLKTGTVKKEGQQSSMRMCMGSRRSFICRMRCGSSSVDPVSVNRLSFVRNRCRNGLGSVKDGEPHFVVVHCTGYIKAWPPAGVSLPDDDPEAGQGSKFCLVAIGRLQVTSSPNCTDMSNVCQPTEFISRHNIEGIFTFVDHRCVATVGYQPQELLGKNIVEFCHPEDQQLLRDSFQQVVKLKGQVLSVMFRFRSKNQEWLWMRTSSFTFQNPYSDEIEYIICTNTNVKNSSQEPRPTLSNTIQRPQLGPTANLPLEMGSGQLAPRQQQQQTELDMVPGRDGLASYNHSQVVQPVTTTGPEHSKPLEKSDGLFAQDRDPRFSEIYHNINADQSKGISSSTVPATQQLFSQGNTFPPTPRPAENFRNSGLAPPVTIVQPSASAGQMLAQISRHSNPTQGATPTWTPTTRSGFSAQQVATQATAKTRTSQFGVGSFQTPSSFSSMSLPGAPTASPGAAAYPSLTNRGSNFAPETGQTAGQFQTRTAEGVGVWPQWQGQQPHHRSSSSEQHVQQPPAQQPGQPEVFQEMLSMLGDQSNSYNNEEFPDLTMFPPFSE
Sequence of ARNT alone (P27540 whole entry, one chain of several): as above
Sequence of AhR-ARNT heterodimer (mouse AhR + human ARNT) (P30561 1-805, chain 1 of 2): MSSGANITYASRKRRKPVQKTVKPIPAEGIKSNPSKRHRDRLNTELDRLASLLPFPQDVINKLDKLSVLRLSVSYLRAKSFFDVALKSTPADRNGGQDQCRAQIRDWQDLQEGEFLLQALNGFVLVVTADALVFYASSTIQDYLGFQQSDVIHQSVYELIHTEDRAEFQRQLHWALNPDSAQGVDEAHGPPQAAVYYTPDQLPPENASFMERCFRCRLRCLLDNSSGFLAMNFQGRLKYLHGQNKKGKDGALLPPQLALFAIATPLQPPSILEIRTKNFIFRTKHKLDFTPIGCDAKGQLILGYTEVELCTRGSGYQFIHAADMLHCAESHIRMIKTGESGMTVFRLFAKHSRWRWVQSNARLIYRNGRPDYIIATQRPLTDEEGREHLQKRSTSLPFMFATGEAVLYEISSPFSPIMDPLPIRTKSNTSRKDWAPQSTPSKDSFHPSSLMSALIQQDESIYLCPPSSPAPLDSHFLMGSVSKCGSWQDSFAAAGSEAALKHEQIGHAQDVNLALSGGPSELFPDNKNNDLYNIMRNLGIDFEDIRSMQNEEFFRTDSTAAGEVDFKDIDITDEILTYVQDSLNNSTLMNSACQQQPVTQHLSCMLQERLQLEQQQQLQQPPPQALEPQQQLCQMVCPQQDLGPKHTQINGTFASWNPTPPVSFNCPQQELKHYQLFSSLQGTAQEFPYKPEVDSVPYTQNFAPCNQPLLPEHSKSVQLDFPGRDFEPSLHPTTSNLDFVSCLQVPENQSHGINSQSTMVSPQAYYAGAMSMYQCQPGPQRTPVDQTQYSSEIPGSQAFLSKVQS
Sequence of AhR-ARNT heterodimer (mouse AhR + human ARNT) (P27540 whole entry, chain 2 of 2): as the sequence (P27540 whole entry, one chain of several) above

B1: DRE3 (dsDNA)
DNA 1: TCGAGTAGATCACGCAATGGGCCCAGC
DNA 2: TCGAGCTGGGCCCATTGCGTGATCTAC
binding result (ARNT alone): no binding
binding result (AhR (human) alone): no binding
binding result [1]: binds
binding result [2]: binds
